Molecular target: Streptolysin O (SLO), wild type, full length (Streptococcus pyogenes) (UniProt P0DF96)
Assay: ELISA

Sequence of UniProt P0DF96 (P0DF96 34-571): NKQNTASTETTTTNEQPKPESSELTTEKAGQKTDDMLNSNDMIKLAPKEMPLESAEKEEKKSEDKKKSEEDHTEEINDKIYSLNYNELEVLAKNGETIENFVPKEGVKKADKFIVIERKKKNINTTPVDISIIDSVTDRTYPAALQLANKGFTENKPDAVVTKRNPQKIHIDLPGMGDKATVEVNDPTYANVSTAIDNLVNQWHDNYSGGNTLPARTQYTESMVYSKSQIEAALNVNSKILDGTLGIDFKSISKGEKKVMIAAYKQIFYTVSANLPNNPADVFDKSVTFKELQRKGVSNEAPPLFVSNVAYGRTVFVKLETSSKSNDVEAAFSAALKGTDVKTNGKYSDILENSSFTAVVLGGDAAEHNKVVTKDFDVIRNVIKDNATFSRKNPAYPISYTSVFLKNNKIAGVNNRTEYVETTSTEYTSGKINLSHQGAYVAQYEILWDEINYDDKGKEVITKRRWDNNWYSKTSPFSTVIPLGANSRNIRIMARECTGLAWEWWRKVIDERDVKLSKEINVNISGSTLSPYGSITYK

Substance: murine neutralizing monoclonal antibody (nAb) against Streptolysin O, Abcam AB23501
- Kd: 1.12 nM

From PMC11154737
